We go through one molecule from patent publication US20210063414A1, “METHODS FOR PREVENTING AND/OR TREATING BONE LOSS CONDITIONS BY MODULATING IRISIN” (Dana-Farber Cancer Institute, Inc., priority 2018, published 2021).

In experiment [1] the target is T1, MLO-Y4 cell surface proteins (Mus musculus, UniProt Q8JZN5).
T1 construct: endogenous in cells; host or cells: MLO-Y4
T1 sequence (Q8JZN5 42-625): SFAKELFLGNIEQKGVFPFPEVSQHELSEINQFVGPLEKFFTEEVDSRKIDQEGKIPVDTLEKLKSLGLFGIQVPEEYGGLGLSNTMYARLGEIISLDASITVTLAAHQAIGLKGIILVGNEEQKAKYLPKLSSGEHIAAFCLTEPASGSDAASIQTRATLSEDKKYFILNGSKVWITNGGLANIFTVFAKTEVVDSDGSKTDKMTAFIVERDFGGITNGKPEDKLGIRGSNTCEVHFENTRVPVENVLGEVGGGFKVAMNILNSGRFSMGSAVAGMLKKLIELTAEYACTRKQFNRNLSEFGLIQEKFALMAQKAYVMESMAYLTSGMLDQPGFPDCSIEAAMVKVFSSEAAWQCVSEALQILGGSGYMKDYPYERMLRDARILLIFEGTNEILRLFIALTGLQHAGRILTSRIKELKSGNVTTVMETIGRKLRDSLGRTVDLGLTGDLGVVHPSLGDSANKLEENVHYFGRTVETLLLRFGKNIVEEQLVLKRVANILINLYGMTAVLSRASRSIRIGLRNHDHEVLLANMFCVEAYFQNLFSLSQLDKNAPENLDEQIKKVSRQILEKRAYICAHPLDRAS
Briefly: Crosslinking/co-immunoprecipitation/mass spectrometry (TMT quantitative proteomics) to identify irisin receptors. Type of experiment: binding. To be noted: co-precipitated protein Acad9 (ACAD9_MOUSE). A digest of the protocol:
(§1)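 Relative protein abundance came from 6-plex TMT MS3 quantitation on an Orbitrap Fusion Lumos, after in-gel trypsin digestion of Coomassie-stained SDS-PAGE lanes. Input was a Ni-NTA pulldown (250 mM imidazole elution) of lysates from murine MLO-Y4 cells. These cells were treated on ice with His-tagged irisin or adipsin (10 nM, 20 min) in serum-free medium, then crosslinked with 1.5 mM DTSSP for 30 min.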

Experiment [2] concerns the target T2, MLO-Y4 cell surface proteins (Mus musculus, UniProt Q791V5).
T2 construct: endogenous in cells; host or cells: MLO-Y4
T2 sequence (Q791V5 1-303): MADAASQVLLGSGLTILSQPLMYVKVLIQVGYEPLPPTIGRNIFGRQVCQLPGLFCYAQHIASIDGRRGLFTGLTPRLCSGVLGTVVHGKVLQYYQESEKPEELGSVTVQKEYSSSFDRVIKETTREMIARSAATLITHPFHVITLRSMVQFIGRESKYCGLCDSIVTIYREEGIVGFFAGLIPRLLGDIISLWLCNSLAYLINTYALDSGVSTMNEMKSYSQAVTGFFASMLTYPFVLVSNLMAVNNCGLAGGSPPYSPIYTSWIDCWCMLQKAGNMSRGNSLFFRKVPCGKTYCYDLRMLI
The experiment is described as above. It counts as binding. Particulars: co-precipitated protein Mteh2 (MTCH2_MOUSE). The procedure, abridged:
as §1

B1: irisin: secreted cleaved form of FNDC5; recombinant human/mouse irisin with C-terminal his tag produced in HEK293 cells (protein)
chain: DSPSAPVNVTVRHLKANSAVVSWDVLEDEVVIGFAISQQKKDVRMLRFIQEVNTTTRSCALWDLEEDTEYIVHVQAISIQGQSPASEPVLFKTPREAEKMASKNKDEVTMKE
modifications: left off: small tags and cut ends
notes: secreted cleaved form of FNDC5; recombinant human/mouse irisin with C-terminal his tag produced in HEK293 cells
As for B1, the TMT signal-to-noise ratio in experiment [1] amounted to 61.8219; in experiment [2], 5.766. The entries for the “irisin/adipsin TMT signal-to-noise ratio” value in experiment [1] and in experiment [2] were 0.486 and 0.057, respectively.
